Laboratory results published in publication PMC13244463, “Intermolecular β‑sheet Formation Guides the Interaction between Ubiquitin-like Modifier FAT10 and Adapter Protein NUB1L” (Journal of the American Chemical Society, 2026).

Biological target: T1, Human NUB1L (amino acids 2-615) (human, UniProt Q9Y5A7-1 2-615)
T1 construct: NUB1L, the long isoform of NEDD8-ultimate buster 1, human, amino acids 2-615 (615 residues in the long isoform); Details are in the Supporting Information; also called NEDD8-ultimate buster 1 long isoform; natural abundance NUB1L; source: E. coli BL21-CodonPlus(DE3)-RIPL, LB medium, purified (same steps as for N-FAT10-C0)
T1 sequence (looked up): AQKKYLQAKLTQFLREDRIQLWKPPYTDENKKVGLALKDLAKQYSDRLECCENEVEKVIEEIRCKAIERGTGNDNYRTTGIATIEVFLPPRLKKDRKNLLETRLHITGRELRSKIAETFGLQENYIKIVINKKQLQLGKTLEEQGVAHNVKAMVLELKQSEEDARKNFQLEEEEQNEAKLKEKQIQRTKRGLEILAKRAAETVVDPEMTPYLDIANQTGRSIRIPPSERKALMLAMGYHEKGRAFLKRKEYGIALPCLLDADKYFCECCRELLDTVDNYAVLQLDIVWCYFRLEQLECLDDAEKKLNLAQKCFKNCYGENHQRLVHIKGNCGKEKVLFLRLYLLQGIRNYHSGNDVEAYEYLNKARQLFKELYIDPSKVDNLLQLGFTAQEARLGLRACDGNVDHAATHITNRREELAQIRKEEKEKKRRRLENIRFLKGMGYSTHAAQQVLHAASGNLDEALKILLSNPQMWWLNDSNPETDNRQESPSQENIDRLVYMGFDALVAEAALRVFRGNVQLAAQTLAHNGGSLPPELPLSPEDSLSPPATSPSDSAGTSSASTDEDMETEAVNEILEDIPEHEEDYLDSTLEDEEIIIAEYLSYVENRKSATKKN
Assay: SEC; size-exclusion chromatography (with SDS-PAGE) of N-FAT10-C0 with NUB1L, Figure S1; conditions are in the Supporting Information
Conditions: both partners purified

binding result: binds
B1: Cys-free N-domain of human FAT10 (amino acids 5-86; C7T, C9T) (domain or fragment)
chain: GASTLTVHVRSEEWDLMTFDANPYDSVKKIKEHVRSKTKVPVQDQVLLLGSKILKPRRSLSSYGIDKEKTIHLTLKVVKPSDE
notes: additional glycine residue at the N-terminus that remains from the TEV protease cleavage site; FAT10 (human leukocyte antigen F adjacent transcript 10), human, N-domain, amino acids 5-86, with C7T and C9T; 83 residues together with the extra glycine; Uniformly 13C,15N labelled (M9 medium with U-13C6-D-glucose and 15N-ammonium chloride) for MAS NMR; Detailed protocols are in the Supporting …
